Literature values in patent US10709784B2, “Metal chelating compositions and methods for controlling the growth or activities of a living cell or organism” (CHELATION PARTNERS INCORPORATED, priority 2011, dated 2020).

Conditions: comparison value, molecular weight 80 kDa/mole

B1: lactoferrin: iron binding defence protein, molecular weight 80 kDa/mole (protein, UniProt P02788 20-710, looked up)
Lactotransferrin: GRRRSVQWCAVSQPEATKCFQWQRNMRKVRGPPVSCIKRDSPIQCIQAIAENRADAVTLDGGFIYEAGLAPYKLRPVAAEVYGTERQPRTHYYAVAVVKKGGSFQLNELQGLKSCHTGLRRTAGWNVPIGTLRPFLNWTGPPEPIEAAVARFFSASCVPGADKGQFPNLCRLCAGTGENKCAFSSQEPYFSYSGAFKCLRDGAGDVAFIRESTVFEDLSDEAERDEYELLCPDNTRKPVDKFKDCHLARVPSHAVVARSVNGKEDAIWNLLRQAQEKFGKDKSPKFQLFGSPSGQKDLLFKDSAIGFSRVPPRIDSGLYLGSGYFTAIQNLRKSEEEVAARRARVVWCAVGEQELRKCNQWSGLSEGSVTCSSASTTEDCIALVLKGEADAMSLDGGYVYTAGKCGLVPVLAENYKSQQSSDPDPNCVDRPVEGYLAVAVVRRSDTSLTWNSVKGKKSCHTAVDRTAGWNIPMGLLFNQTGSCKFDEYFSQSCAPGSDPRSNLCALCIGDEQGENKCVPNSNERYYGYTGAFRCLAENAGDVAFVKDVTVLQNTDGNNNEAWAKDLKLADFALLCLDGKRKPVTEARSCHLAMAPNHAVVSRMDKVERLKQVLLHQQAKFGRNGSDCPDKFCLFQSETKNLLFNDNTECLARLHGKTTYEKYLGPQYVAGITNLKKCSTSPLLEACEFLRK
- Fe bound per mole: 2 atoms of Fe/mole
